{
  "source": "patent US20140087995A1",
  "about": "(published 2014)",
  "binders": {"B1": {"name": "N^ε1-[2-[2-[2-[[(4S)-4-carboxy-4-(19-carboxynonadecanoylamino)butanoyl]amino]ethoxy]ethoxy]acetyl]-[His14,Arg17,Pro21,Pro27,Pro31]-h-amylin (peptide)", "peptide": "K([AEEA-γGlu-C20 diacid])CNTATCATQRLAHFLRHSSPNFGAIPSSTPVGSNTY-NH2", "modifications": "disulfide 2-7; N-terminus assumed", "SMILES": "CC[C@H](C)[C@H](NC(=O)[C@H](C)NC(=O)CNC(=O)[C@H](Cc1ccccc1)NC(=O)[C@H](CC(N)=O)NC(=O)[C@@H]1CCCN1C(=O)[C@H](CO)NC(=O)[C@H](CO)NC(=O)[C@H](Cc1c[nH]cn1)NC(=O)[C@H](CCCNC(=N)N)NC(=O)[C@H](CC(C)C)NC(=O)[C@H](Cc1ccccc1)NC(=O)[C@H](Cc1c[nH]cn1)NC(=O)[C@H](C)NC(=O)[C@H](CC(C)C)NC(=O)[C@H](CCCNC(=N)N)NC(=O)[C@H](CCC(N)=O)NC(=O)[C@@H](NC(=O)[C@H](C)NC(=O)[C@@H]1CSSC[C@H](NC(=O)[C@@H](N)CCCCNC(=O)COCCOCCNC(=O)CC[C@H](NC(=O)CCCCCCCCCCCCCCCCCCC(=O)O)C(=O)O)C(=O)N[C@@H](CC(N)=O)C(=O)N[C@@H]([C@@H](C)O)C(=O)N[C@@H](C)C(=O)N[C@@H]([C@@H](C)O)C(=O)N1)[C@@H](C)O)C(=O)N1CCC[C@H]1C(=O)N[C@@H](CO)C(=O)N[C@@H](CO)C(=O)N[C@H](C(=O)N1CCC[C@H]1C(=O)N[C@H](C(=O)NCC(=O)N[C@@H](CO)C(=O)N[C@@H](CC(N)=O)C(=O)N[C@H](C(=O)N[C@@H](Cc1ccc(O)cc1)C(N)=O)[C@@H](C)O)C(C)C)[C@@H](C)O", "notes": "Acylated analogue of human amylin; also called compound 61"}, "B2": {"name": "N^ε1-[(4S)-4-carboxy-4-(19-carboxynonadecanoylamino)butanoyl]-[Arg17,Pro21,Pro27,His35]-h-amylin (peptide)", "peptide": "K([γGlu-C20 diacid])CNTATCATQRLANFLRHSSPNFGAIPSSTNVGSHTY-NH2", "modifications": "disulfide 2-7; N-terminus assumed", "SMILES": "CC[C@H](C)[C@H](NC(=O)[C@H](C)NC(=O)CNC(=O)[C@H](Cc1ccccc1)NC(=O)[C@H](CC(N)=O)NC(=O)[C@@H]1CCCN1C(=O)[C@H](CO)NC(=O)[C@H](CO)NC(=O)[C@H](Cc1c[nH]cn1)NC(=O)[C@H](CCCNC(=N)N)NC(=O)[C@H](CC(C)C)NC(=O)[C@H](Cc1ccccc1)NC(=O)[C@H](CC(N)=O)NC(=O)[C@H](C)NC(=O)[C@H](CC(C)C)NC(=O)[C@H](CCCNC(=N)N)NC(=O)[C@H](CCC(N)=O)NC(=O)[C@@H](NC(=O)[C@H](C)NC(=O)[C@@H]1CSSC[C@H](NC(=O)[C@@H](N)CCCCNC(=O)CC[C@H](NC(=O)CCCCCCCCCCCCCCCCCCC(=O)O)C(=O)O)C(=O)N[C@@H](CC(N)=O)C(=O)N[C@@H]([C@@H](C)O)C(=O)N[C@@H](C)C(=O)N[C@@H]([C@@H](C)O)C(=O)N1)[C@@H](C)O)C(=O)N1CCC[C@H]1C(=O)N[C@@H](CO)C(=O)N[C@@H](CO)C(=O)N[C@H](C(=O)N[C@@H](CC(N)=O)C(=O)N[C@H](C(=O)NCC(=O)N[C@@H](CO)C(=O)N[C@@H](Cc1c[nH]cn1)C(=O)N[C@H](C(=O)N[C@@H](Cc1ccc(O)cc1)C(N)=O)[C@@H](C)O)C(C)C)[C@@H](C)O", "notes": "Acylated analogue of human amylin; also called compound 60"}, "B3": {"name": "N^ε1-[(4S)-4-carboxy-4-(19-carboxynonadecanoylamino)butanoyl]-[His14,Arg17,Pro21,Pro27,Pro31]-h-amylin (peptide)", "peptide": "K([γGlu-C20 diacid])CNTATCATQRLAHFLRHSSPNFGAIPSSTPVGSNTY-NH2", "modifications": "disulfide 2-7; N-terminus assumed", "SMILES": "CC[C@H](C)[C@H](NC(=O)[C@H](C)NC(=O)CNC(=O)[C@H](Cc1ccccc1)NC(=O)[C@H](CC(N)=O)NC(=O)[C@@H]1CCCN1C(=O)[C@H](CO)NC(=O)[C@H](CO)NC(=O)[C@H](Cc1c[nH]cn1)NC(=O)[C@H](CCCNC(=N)N)NC(=O)[C@H](CC(C)C)NC(=O)[C@H](Cc1ccccc1)NC(=O)[C@H](Cc1c[nH]cn1)NC(=O)[C@H](C)NC(=O)[C@H](CC(C)C)NC(=O)[C@H](CCCNC(=N)N)NC(=O)[C@H](CCC(N)=O)NC(=O)[C@@H](NC(=O)[C@H](C)NC(=O)[C@@H]1CSSC[C@H](NC(=O)[C@@H](N)CCCCNC(=O)CC[C@H](NC(=O)CCCCCCCCCCCCCCCCCCC(=O)O)C(=O)O)C(=O)N[C@@H](CC(N)=O)C(=O)N[C@@H]([C@@H](C)O)C(=O)N[C@@H](C)C(=O)N[C@@H]([C@@H](C)O)C(=O)N1)[C@@H](C)O)C(=O)N1CCC[C@H]1C(=O)N[C@@H](CO)C(=O)N[C@@H](CO)C(=O)N[C@H](C(=O)N1CCC[C@H]1C(=O)N[C@H](C(=O)NCC(=O)N[C@@H](CO)C(=O)N[C@@H](CC(N)=O)C(=O)N[C@H](C(=O)N[C@@H](Cc1ccc(O)cc1)C(N)=O)[C@@H](C)O)C(C)C)[C@@H](C)O", "notes": "Acylated analogue of human amylin; also called compound 62"}, "B4": {"name": "N^ε1-[(4S)-4-carboxy-4-(19-carboxynonadecanoylamino)butanoyl]-[Glu14,Arg17,Pro21,Pro27,Arg35]-h-amylin (peptide)", "peptide": "K([γGlu-C20 diacid])CNTATCATQRLAEFLRHSSPNFGAIPSSTNVGSRTY-NH2", "modifications": "disulfide 2-7; N-terminus assumed", "SMILES": "CC[C@H](C)[C@H](NC(=O)[C@H](C)NC(=O)CNC(=O)[C@H](Cc1ccccc1)NC(=O)[C@H](CC(N)=O)NC(=O)[C@@H]1CCCN1C(=O)[C@H](CO)NC(=O)[C@H](CO)NC(=O)[C@H](Cc1c[nH]cn1)NC(=O)[C@H](CCCNC(=N)N)NC(=O)[C@H](CC(C)C)NC(=O)[C@H](Cc1ccccc1)NC(=O)[C@H](CCC(=O)O)NC(=O)[C@H](C)NC(=O)[C@H](CC(C)C)NC(=O)[C@H](CCCNC(=N)N)NC(=O)[C@H](CCC(N)=O)NC(=O)[C@@H](NC(=O)[C@H](C)NC(=O)[C@@H]1CSSC[C@H](NC(=O)[C@@H](N)CCCCNC(=O)CC[C@H](NC(=O)CCCCCCCCCCCCCCCCCCC(=O)O)C(=O)O)C(=O)N[C@@H](CC(N)=O)C(=O)N[C@@H]([C@@H](C)O)C(=O)N[C@@H](C)C(=O)N[C@@H]([C@@H](C)O)C(=O)N1)[C@@H](C)O)C(=O)N1CCC[C@H]1C(=O)N[C@@H](CO)C(=O)N[C@@H](CO)C(=O)N[C@H](C(=O)N[C@@H](CC(N)=O)C(=O)N[C@H](C(=O)NCC(=O)N[C@@H](CO)C(=O)N[C@@H](CCCNC(=N)N)C(=O)N[C@H](C(=O)N[C@@H](Cc1ccc(O)cc1)C(N)=O)[C@@H](C)O)C(C)C)[C@@H](C)O", "notes": "Acylated analogue of human amylin; also called compound 51"}},
  "note": "Numbered stars: 1 amine (or outer) side, 2 acyl side, 3 side chain; on linkers, the order of the positions; unused ones are H or OH. Bridge positions count the residues as written; N and C are the ends. Side chains are listed from the residue outwards. Ends that are not written are not given here. * marks the point of attachment. C20 diacid = O=C(O)CCCCCCCCCCCCCCCCCCC(=O)*; γGlu = O=C(O)[C@H](CCC(=O)[*:2])N[*:1]; AEEA = NCCOCCOCC(=O)O",
  "data": [
    {"target": "T1, rat calcitonin receptor (rat, UniProt P32214 25-516)", "T1 construct": "whole, on cells; Cell membranes of transiently transfected BHK tk'ts 13 cells (Assay VIII); also called rCTR; rCT", "T1 sequence (looked up)": "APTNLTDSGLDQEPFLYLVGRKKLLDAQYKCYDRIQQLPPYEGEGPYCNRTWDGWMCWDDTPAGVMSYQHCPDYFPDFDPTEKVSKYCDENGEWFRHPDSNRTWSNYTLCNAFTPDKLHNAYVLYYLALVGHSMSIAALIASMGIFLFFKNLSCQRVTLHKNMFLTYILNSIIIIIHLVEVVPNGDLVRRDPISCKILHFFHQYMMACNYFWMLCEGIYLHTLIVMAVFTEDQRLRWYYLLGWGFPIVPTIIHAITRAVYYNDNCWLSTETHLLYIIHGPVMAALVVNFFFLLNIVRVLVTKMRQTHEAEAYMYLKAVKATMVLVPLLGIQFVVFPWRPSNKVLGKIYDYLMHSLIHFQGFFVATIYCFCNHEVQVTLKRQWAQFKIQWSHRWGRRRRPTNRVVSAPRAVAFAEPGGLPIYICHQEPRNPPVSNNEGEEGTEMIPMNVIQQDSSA", "assay": "SPA competition vs 125I-calcitonin, membranes with rat CTR (Assay VIII)", "units": {"IC50": "nM"}, "values": [
      {"binder": "B1", "IC50": 33.4},
      {"binder": "B2", "IC50": 26.3},
      {"binder": "B3", "IC50": 18},
      {"binder": "B4", "IC50": 62}
    ]},
    {"target": "T2, rat amylin receptor (rat calcitonin receptor + rat RAMP 3) (rat, UniProt P32214 25-516; Q9JJ73 23-147)", "T2 construct": "whole, on cells; Cell membranes of transiently transfected BHK tk'ts 13 cells (Assay VI); also called rAmylin-R; rat amylin 3(a) receptor", "T2 sequence (looked up) 1": "T1 sequence (looked up)", "T2 sequence (looked up) 2": "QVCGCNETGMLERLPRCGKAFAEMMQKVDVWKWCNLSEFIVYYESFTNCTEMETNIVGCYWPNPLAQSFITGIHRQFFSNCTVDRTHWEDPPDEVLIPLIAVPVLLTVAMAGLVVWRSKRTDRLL", "assay": "SPA competition vs 125I-rat amylin, membranes with rat CTR + rat RAMP3 (Assay VI)", "units": {"IC50": "nM"}, "values": [
      {"binder": "B1", "IC50": 0.842},
      {"binder": "B2", "IC50": 0.215},
      {"binder": "B3", "IC50": 0.42},
      {"binder": "B4", "IC50": 0.523}
    ]},
    {"target": "T1, rat calcitonin receptor", "assay": "ratio IC50 rat calcitonin receptor / IC50 rat amylin receptor", "values": [
      {"binder": "B1", "Ratio rCT/rAmylin binding": 39.7},
      {"binder": "B2", "Ratio rCT/rAmylin binding": 122},
      {"binder": "B3", "Ratio rCT/rAmylin binding": 42.8},
      {"binder": "B4", "Ratio rCT/rAmylin binding": 119}
    ]}
  ]
}
